Earlier results as cited in article PMC4264850.

Molecular target: EGFR (Homo sapiens) (UniProt P00533)

Kd: 0.34 nM
Substance: matuzumab
